For experiment [1], the target named is protein kinase B, P31749. The experiment in a line: cell-based or functional assay.
Experiment [2] deals with protein kinase B (UniProt P31749). Kind of experiment: cell-based or functional assay.

Where no end group is shown, it is not given here. Side-chain parts run from the residue outwards. [ ]: non-standard residue; d: D form. The star is where a group is joined. O‑CO‑N‑SO2‑IQ = carbamate-linked N-sulfonyl 5-aminoethylsulfonamide isoquinoline (O-CO-N-SO2-IQ); SO2‑IQ = 5-aminoethylsulfoneamide isoquinoline, O=S(=O)(NCCN*)c1cccc2cnccc12; X1 = 5‑aminoethylsulfonamide isoquinoline, O=S(=O)(NCCN*)c1cccc2cnccc12; S‑IQ = 5-mercaptoaminopropyl isoquinoline; hLeu = CC(C)CC[C@H](N)C(=O)O; GltNH2 = not defined here; Nle = CCCC[C@H](N)C(=O)O; Orn = NCCC[C@H](N)C(=O)O; bGaba = not defined here; Dab = NCC[C@H](N)C(=O)O; Nva = CCC[C@H](N)C(=O)O; Abu = CC[C@H](N)C(=O)O; Dap = NC[C@H](N)C(=O)O; Ph2 = not defined here; GlyNH2 = aminoglycine; Ava = NCCCCC(=O)O; βAla = NCCC(=O)O A value given as a limit tells only on which side of the number the result lay.

As usually defined, the % inhibition is the drop in the measured response relative to a control, in per cent. Lower therefore signals a response near the control.

Chain of protein kinase B, P31749 (P31749 whole entry): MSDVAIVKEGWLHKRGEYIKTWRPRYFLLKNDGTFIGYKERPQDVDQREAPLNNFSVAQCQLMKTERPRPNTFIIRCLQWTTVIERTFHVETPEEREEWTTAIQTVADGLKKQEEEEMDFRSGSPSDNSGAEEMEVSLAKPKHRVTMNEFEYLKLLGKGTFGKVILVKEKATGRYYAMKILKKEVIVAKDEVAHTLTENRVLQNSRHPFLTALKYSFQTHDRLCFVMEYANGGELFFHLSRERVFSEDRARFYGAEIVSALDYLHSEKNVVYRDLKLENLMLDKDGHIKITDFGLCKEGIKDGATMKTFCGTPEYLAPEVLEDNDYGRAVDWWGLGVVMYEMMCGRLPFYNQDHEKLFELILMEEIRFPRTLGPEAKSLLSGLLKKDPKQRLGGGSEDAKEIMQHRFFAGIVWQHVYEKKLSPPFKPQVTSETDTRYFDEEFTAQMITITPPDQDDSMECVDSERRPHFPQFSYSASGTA
Chain of protein kinase B (P31749 whole entry): as above

In experiment [1], RPRTE([βAla-S‑IQ])SF [PTR 6102] registered an IC50 PKB of 300 nM and a PKB IC50 of 0.3 µM.

In experiment [1], RPRTSA[hLeu] [TY 60002-50] gave a % Inhibition PKB I of 62% and an Activity PKB of 5 µM.

Take RPR[Nle]E([βAla-X1])A[hLeu] (not fully specified (C-terminus)) [TY-60020-94]: in experiment [2], the % inhibition of kinase activity at 1 µM; PKB-kinase (spa) Assay 1 is 9% and the % inhibition of kinase activity at 1 µM; PKB-kinase (spa) Assay 2 came out at 31%.

The molecule RPRTE([Ava-SO2‑IQ])SF [PTR 6090] gave a PKB IC50 in experiment [1] of 5.6 µM.

For the molecule RPR[Nle]E([βAla-X1])AF (not fully specified (C-terminus)) [TY-60020-93], in experiment [2], the % inhibition of kinase activity at 1 µM; PKB-kinase (spa) Assay 1 is -12% and the % inhibition of kinase activity at 1 µM; PKB-kinase (spa) Assay 2 came to 58%.

On to RPRTSE(SO2‑IQ)F [PTR 6014], for which, in experiment [1], the Activity PKB stood at 25 µM and the PKB IC50 was found to be 25 µM.

As for RPR[Orn]SSF [AR 60003-52], the Activity PKB in experiment [1] was determined as 2.5 µM.

As to RPR[Nva][GlyNH2]A[hLeu] [60006-5A], in experiment [1], the % Inhibition PKB I stood at 47%, the % Inhibition PKB II is 43% and the IC50 µM PKB came to 10 µM.

For the molecule RPRTS[GlyNH2]F [60005-5], in experiment [1], the % Inhibition PKB I stood at 96%, the % Inhibition PKB II stood at 93% and the IC50 µM PKB turned out to be 2.4 µM.

RPRTS[Dap][hLeu] [TY 60002-96] had an Activity PKB in experiment [1] of 5 µM.

In the case of RPR[Nle]E(S‑IQ)SF [PTR 6136], the PKB IC50 in experiment [1] stood at 0.114 µM.

On to RPRRSSF [AR 60003-53], for which, in experiment [1], the Activity PKB worked out at 3 µM.

On to RPR[Nva][GlyNH2][Dap][Ph2] (reading uncertain) [60006-11B], for which, in experiment [1], the % Inhibition PKB I came to 51% and the % Inhibition PKB II amounted to 44%.

In experiment [1], RPR[Orn]E(SO2‑IQ)SF [PTR 6132] yielded an IC50 PKB of 20 nM and a PKB IC50 of 0.02 µM.

Take RPR[Nva]E([βAla-SO2‑IQ])A[hLeu] [PTR 6152]: the PKB IC50 in experiment [1] is 5 µM.

For the molecule RPRTE(S‑IQ)SF [PTR 6104], in experiment [1], the IC50 PKB turned out to be 100 nM and the PKB IC50 worked out at 0.1 µM.

B1: PTR 6020 (peptide)
peptide: RPRTS[Abu]F
modifications: not fully specified (C-terminus); printed as Arg-Pro-Arg-Thr-Ser-Abu-Phe-(O-CO-N-bAla-SO2-IQ); also: -(O-CO-N-bAla-SO2-IQ) on Phe7, attachment unclear
In experiment [1], B1 registered an Activity PKB of more than 20 µM and a PKB IC50 of 18 µM.

Take RPRTE([βAla-SO2‑IQ])SF [PTR 6082]: the PKB IC50 in experiment [1] was determined as 5.54 µM.

In the case of RPR[Orn]E([bGaba-SO2‑IQ])SF (reading uncertain) [PTR 6088], the PKB IC50 in experiment [1] was 1.18 µM.

Consider RPRMSSF [AR 60003-50], for which, in experiment [1], the Activity PKB was 2.5 µM.

For the molecule RPR[Nle]SS[Nle] [AR 60003-62], in experiment [1], the % inhibition at 1 µM was 70% and the Activity PKB was less than 1 µM.

In experiment [1], RPR[Nle]E([βAla-SO2‑IQ])[Dab]F [PTR 6140] gave a PKB IC50 of 0.413 µM.

For RPR[Nva][GlyNH2][Abu][hLeu] [60006-7B], in experiment [1], the % Inhibition PKB I amounted to 53% and the % Inhibition PKB II was 47%.

On to RPRTS[Abu]F-{O‑CO‑N‑SO2‑IQ} (not fully specified; printed as Arg-Pro-Arg-Thr-Ser-Abu-Phe-(O-CO-N-SO2-IQ)) [PTR 6013], for which, in experiment [1], the Activity PKB amounted to 3 µM and the PKB IC50 is 4 µM.

Turning to RPRTE(SO2‑IQ)SF [PTR 6016], in experiment [1], the Activity PKB came to 0.9 µM and the PKB IC50 turned out to be 1 µM.

On to RPRTD(SO2‑IQ)SF [PTR 6130], for which, in experiment [1], the PKB IC50 is 9.5 µM.

For the molecule RPR[Nle]E([βAla-SO2‑IQ])[Abu]F [PTR 6138], in experiment [1], the PKB IC50 amounted to 2 µM.

Regarding RPR[Nle]E([βAla-SO2‑IQ])SF [PTR 6086], the PKB IC50 in experiment [1] was determined as 0.57 µM.

RPR[Nle]E([βAla-SO2‑IQ])S[Nle] [PTR 6096] returned a PKB IC50 in experiment [1] of 0.93 µM.

For RPRT[Dap]SF (not fully specified (residue 5)) [PTR 6106], in experiment [1], the PKB IC50 worked out at 10 µM.

In experiment [1], RPRVS[Abu]F [TY 60002-61] showed an Activity PKB of 5 µM.

Turning to RPR[Nva]E(S‑IQ)SF [PTR 6134], the PKB IC50 in experiment [1] turned out to be 0.217 µM.

In experiment [1], RPR[Nva][GlyNH2][GltNH2][hLeu] (reading uncertain) [60006-16A] gave a % Inhibition PKB I of 42% and a % Inhibition PKB II of 42%.

In experiment [1], RPR[Nva]E(SO2‑IQ)A[hLeu] [PTR 6150] had a PKB IC50 of 25 µM.

On to RPRTS[Abu][hLeu] [TY 60002-73], for which, in experiment [1], the % Inhibition PKB I amounted to 44%, the Activity PKB turned out to be 5 µM and the IC50 µM PKB came out at 34 µM.

With RPR[Nle]E(SO2‑IQ)SF [PTR 6128], in experiment [1], the PKB IC50 worked out at 9 µM.

These data come from patent US7407939.
